# Test results taken from patent publication US20090263395.
# Target: Histone H1 (UPSTATE, Lake Placid, N.Y.)
row,Protein,"kinase activity (immune complex kinase assay, [gamma-32P]-ATP)"
1,"A2282 protein, wild type (A2282V1, MELK), HA-tagged, immunoprecipitated from HEK 293 cells (protein) MKDYDELLKYYELHETIGTGGFAKVKLACHILTGEMVAIKIMDKNTLGSDLPRIKTEIEALKNLRHQHICQLYHVLETANKIFMVLEYCPGGELFDYIISQDRLSEEETRVVFRQIVSAVAYVHSQGYAHRDLKPENLLFDEYHKLKLIDFGLCAKPKGNKDYHLQTCCGSLAYAAPELIQGKSYLGSEADVWSMGILLYVLMCGFLPFDDDNVMALYKKIMRGKYDVPKWLSPSSILLLQQMLQVDPKKRISMKNLLNHPWIMQDYNYPVEWQSKNPFIHLDDDCVTELSVHHRNNRQTMEDLISLWQYDHLTATYLLLLAKKARGKPVRLRLSSFSCGQASATPFTDIKSNNWSLEDVTASDKNYVAGLIDYDWCEDDLSTGAATPRTSQFTKYWTESNGVESKSLTPALCRTPANKLKNKENVYTPKSAVKNEEYFMFPEPKTPVNKNQHKREILTTPNRYTTPSKARNQCLKETPIKIPVNSTGTDKLMTGVISPERRCRSVELDLNQAHMEETPKRKGAKVFGSLERGLDKVITVLTRSKRKGSARDGPRRLKLHYNVTTTRLVNPDQLLNEIMSILPKKHVDFVQKGYTLKCQTQSDFGKVTMQFELEVCQLQKPDVVGIRRQRLKGDAWVYKRLVEDILSSCKV",wild type and T478A proteins possessing intact kinase domain was observed phosphorylated Histone H1 in vitro
2,"A2282 protein T478A mutant, HA-tagged (protein) MKDYDELLKYYELHETIGTGGFAKVKLACHILTGEMVAIKIMDKNTLGSDLPRIKTEIEALKNLRHQHICQLYHVLETANKIFMVLEYCPGGELFDYIISQDRLSEEETRVVFRQIVSAVAYVHSQGYAHRDLKPENLLFDEYHKLKLIDFGLCAKPKGNKDYHLQTCCGSLAYAAPELIQGKSYLGSEADVWSMGILLYVLMCGFLPFDDDNVMALYKKIMRGKYDVPKWLSPSSILLLQQMLQVDPKKRISMKNLLNHPWIMQDYNYPVEWQSKNPFIHLDDDCVTELSVHHRNNRQTMEDLISLWQYDHLTATYLLLLAKKARGKPVRLRLSSFSCGQASATPFTDIKSNNWSLEDVTASDKNYVAGLIDYDWCEDDLSTGAATPRTSQFTKYWTESNGVESKSLTPALCRTPANKLKNKENVYTPKSAVKNEEYFMFPEPKTPVNKNQHKREILTTPNRYTTPSKARNQCLKEAPIKIPVNSTGTDKLMTGVISPERRCRSVELDLNQAHMEETPKRKGAKVFGSLERGLDKVITVLTRSKRKGSARDGPRRLKLHYNVTTTRLVNPDQLLNEIMSILPKKHVDFVQKGYTLKCQTQSDFGKVTMQFELEVCQLQKPDVVGIRRQRLKGDAWVYKRLVEDILSSCKV",wild type and T478A proteins possessing intact kinase domain was observed phosphorylated Histone H1 in vitro
3,"A2282 protein T167A mutant, HA-tagged (protein) MKDYDELLKYYELHETIGTGGFAKVKLACHILTGEMVAIKIMDKNTLGSDLPRIKTEIEALKNLRHQHICQLYHVLETANKIFMVLEYCPGGELFDYIISQDRLSEEETRVVFRQIVSAVAYVHSQGYAHRDLKPENLLFDEYHKLKLIDFGLCAKPKGNKDYHLQACCGSLAYAAPELIQGKSYLGSEADVWSMGILLYVLMCGFLPFDDDNVMALYKKIMRGKYDVPKWLSPSSILLLQQMLQVDPKKRISMKNLLNHPWIMQDYNYPVEWQSKNPFIHLDDDCVTELSVHHRNNRQTMEDLISLWQYDHLTATYLLLLAKKARGKPVRLRLSSFSCGQASATPFTDIKSNNWSLEDVTASDKNYVAGLIDYDWCEDDLSTGAATPRTSQFTKYWTESNGVESKSLTPALCRTPANKLKNKENVYTPKSAVKNEEYFMFPEPKTPVNKNQHKREILTTPNRYTTPSKARNQCLKETPIKIPVNSTGTDKLMTGVISPERRCRSVELDLNQAHMEETPKRKGAKVFGSLERGLDKVITVLTRSKRKGSARDGPRRLKLHYNVTTTRLVNPDQLLNEIMSILPKKHVDFVQKGYTLKCQTQSDFGKVTMQFELEVCQLQKPDVVGIRRQRLKGDAWVYKRLVEDILSSCKV",This activity was severely compromised in T167A mutant
4,"A2282 protein D150A mutant, HA-tagged (protein) MKDYDELLKYYELHETIGTGGFAKVKLACHILTGEMVAIKIMDKNTLGSDLPRIKTEIEALKNLRHQHICQLYHVLETANKIFMVLEYCPGGELFDYIISQDRLSEEETRVVFRQIVSAVAYVHSQGYAHRDLKPENLLFDEYHKLKLIAFGLCAKPKGNKDYHLQTCCGSLAYAAPELIQGKSYLGSEADVWSMGILLYVLMCGFLPFDDDNVMALYKKIMRGKYDVPKWLSPSSILLLQQMLQVDPKKRISMKNLLNHPWIMQDYNYPVEWQSKNPFIHLDDDCVTELSVHHRNNRQTMEDLISLWQYDHLTATYLLLLAKKARGKPVRLRLSSFSCGQASATPFTDIKSNNWSLEDVTASDKNYVAGLIDYDWCEDDLSTGAATPRTSQFTKYWTESNGVESKSLTPALCRTPANKLKNKENVYTPKSAVKNEEYFMFPEPKTPVNKNQHKREILTTPNRYTTPSKARNQCLKETPIKIPVNSTGTDKLMTGVISPERRCRSVELDLNQAHMEETPKRKGAKVFGSLERGLDKVITVLTRSKRKGSARDGPRRLKLHYNVTTTRLVNPDQLLNEIMSILPKKHVDFVQKGYTLKCQTQSDFGKVTMQFELEVCQLQKPDVVGIRRQRLKGDAWVYKRLVEDILSSCKV",completely abolished in D150A protein
